The values below come from paper PMC7367873, “Dissecting the sequence determinants for dephosphorylation by the catalytic subunits of phosphatases PP1 and PP2A” (Nature Communications, 2020).

Assay [1] concerns GFP-14-3-3β and its binding proteins. The experiment in a line: GFP-14-3-3β co-IP with LC-MS/MS label-free quantification, untreated versus PP1c-treated. The note with it: pairwise comparison PP1 vs untreated. Further details: species or system human.
A further assay concerns GFP-14-3-3β. The experiment in a line: GFP-14-3-3β co-IP with LC-MS/MS, untreated GFP-14-3-3β versus GFP control (14-3-3 interactome). The note with it: pairwise comparison untreated vs GFP. Type of assay: binding, human.
The mark [2] stands for this setting: log2 difference, label-free quantification, 3 replicates each.

B1: NAP1L1 (protein, UniProt P55209 2-388, looked up)
Nucleosome assembly protein …: ADIDNKEQSELDQDLDDVEEVEEEETGEETKLKARQLTVQMMQNPQILAALQERLDGLVETPTGYIESLPRVVKRRVNALKNLQVKCAQIEAKFYEEVHDLERKYAVLYQPLFDKRFEIINAIYEPTEEECEWKPDEEDEISEELKEKAKIEDEKKDEEKEDPKGIPEFWLTVFKNVDLLSDMVQEHDEPILKHLKDIKVKFSDAGQPMSFVLEFHFEPNEYFTNEVLTKTYRMRSEPDDSDPFSFDGPEIMGCTGCQIDWKKGKNVTLKTIKKKQKHKGRGTVRTVTKTVSNDSFFNFFAPPEVPESGDLDDDAEAILAADFEIGHFLRERIIPRSVLYFTGEAIEDDDDDYDEEGEEADEEGEEEGDEENDPDYDPKKDQNPAEC
With B1, the “Difference (log2), PP1 vs untreated” value in assay [1] (setting [2]) amounted to 1.883. For the same molecule, the “Difference (log2), untreated vs GFP” value with GFP-14-3-3β (setting [2]) is -0.3295.

B2: PHF6 (protein, UniProt Q8IWS0 2-365, looked up)
PHD finger protein 6: SSSVEQKKGPTRQRKCGFCKSNRDKECGQLLISENQKVAAHHKCMLFSSALVSSHSDNESLGGFSIEDVQKEIKRGTKLMCSLCHCPGATIGCDVKTCHRTYHYHCALHDKAQIREKPSQGIYMVYCRKHKKTAHNSEADLEESFNEHELEPSSPKSKKKSRKGRPRKTNFKGLSEDTRSTSSHGTDEMESSSYRDRSPHRSSPSDTRPKCGFCHVGEEENEARGKLHIFNAKKAAAHYKCMLFSSGTVQLTTTSRAEFGDFDIKTVLQEIKRGKRMKCTLCSQPGATIGCEIKACVKTYHYHCGVQDKAKYIENMSRGIYKLYCKNHSGNDERDEEDEERESKSRGKVEIDQQQLTQQQLNGN
Take B2: the “Difference (log2), PP1 vs untreated” value in assay [1] is given as 0.0136 log2. Moreover, the “Difference (log2), untreated vs GFP” value with GFP-14-3-3β is listed as 0.8956 log2.

B3: LYPD3 (protein, UniProt O95274 31-326, looked up)
Ly6/PLAUR domain-containing …: LECYSCVQKADDGCSPNKMKTVKCAPGVDVCTEAVGAVETIHGQFSLAVRGCGSGLPGKNDRGLDLHGLLAFIQLQQCAQDRCNAKLNLTSRALDPAGNESAYPPNGVECYSCVGLSREACQGTSPPVVSCYNASDHVYKGCFDGNVTLTAANVTVSLPVRGCVQDEFCTRDGVTGPGFTLSGSCCQGSRCNSDLRNKTYFSPRIPPLVRLPPPEPTTVASTTSVTTSTSAPVRPTSTTKPMPAPTSQTPRQGVEHEASRDEEPRLTGGAAGHQDRSNSGQYPAKGGPQQPHNKGC
Regarding B3, the “Difference (log2), PP1 vs untreated” value in assay [1] amounted to 0.03143 log2. Besides, the “Difference (log2), untreated vs GFP” value with GFP-14-3-3β is given as -0.7562 log2.

B4: TSR1 (protein, UniProt Q2NL82 1-804, looked up)
Pre-rRNA-processing protein …: MAAHRPGPLKQQNKAHKGGRHRGRGSAQRDGKGRLALKTLSKKVRKELSRVDQRHRASQLRKQKKEAVLAEKRQLGGKDGPPHQVLVVPLHSRISLPEAMQLLQDRDTGTVHLNELGNTQNFMLLCPRLKHRWFFTSARPGDLHVVLDMAKVADTILFLLDPLEGWDSTGDYCLSCLFAQGLPTYTLAVQGISGLPLKKQIDTRKKLSKAVEKRFPHDKLLLLDTQQEAGMLLRQLANQKQQHLAFRDRRAYLFAHAVDFVPSEENNLVGTLKISGYVRGQTLNVNRLLHIVGYGDFQMKQIDAPGDPFPLNPRGIKPQKDPDMAMEICATDAVDDMEEGLKVLMKADPGRQESLQAEVIPDPMEGEQTWPTEEELSEAKDFLKESSKVVKKVPKGTSSYQAEWILDGGSQSGGEGDEYEYDDMEHEDFMEEESQDESSEEEEEYETMTIGESVHDDLYDKKVDEEAEAKMLEKYKQERLEEMFPDEVDTPRDVAARIRFQKYRGLKSFRTSPWDPKENLPQDYARIFQFQNFTNTRKSIFKEVEEKEVEGAEVGWYVTLHVSEVPVSVVECFRQGTPLIAFSLLPHEQKMSVLNMVVRRDPGNTEPVKAKEELIFHCGFRRFRASPLFSQHTAADKHKLQRFLTADMALVATVYAPITFPPASVLLFKQKSNGMHSLIATGHLMSVDPDRMVIKRVVLSGHPFKIFTKMAVVRYMFFNREDVLWFKPVELRTKWGRRGHIKEPLGTHGHMKCSFDGKLKSQDTVLMNLYKRVFPKWTYDPYVPEPVPWLKSEISSTVPQGGME
On to B4, for which the “Difference (log2), PP1 vs untreated” value in assay [1] came out at 0.01439 log2. Also, in the assay with GFP-14-3-3β, the “Difference (log2), untreated vs GFP” value is given as 1.267 log2.

B5: SOAT1 (protein, UniProt P35610 1-550, looked up)
Sterol O-acyltransferase 1: MVGEEKMSLRNRLSKSRENPEEDEDQRNPAKESLETPSNGRIDIKQLIAKKIKLTAEAEELKPFFMKEVGSHFDDFVTNLIEKSASLDNGGCALTTFSVLEGEKNNHRAKDLRAPPEQGKIFIARRSLLDELLEVDHIRTIYHMFIALLILFILSTLVVDYIDEGRLVLEFSLLSYAFGKFPTVVWTWWIMFLSTFSVPYFLFQHWATGYSKSSHPLIRSLFHGFLFMIFQIGVLGFGPTYVVLAYTLPPASRFIIIFEQIRFVMKAHSFVRENVPRVLNSAKEKSSTVPIPTVNQYLYFLFAPTLIYRDSYPRNPTVRWGYVAMKFAQVFGCFFYVYYIFERLCAPLFRNIKQEPFSARVLVLCVFNSILPGVLILFLTFFAFLHCWLNAFAEMLRFGDRMFYKDWWNSTSYSNYYRTWNVVVHDWLYYYAYKDFLWFFSKRFKSAAMLAVFAVSAVVHEYALAVCLSFFYPVLFVLFMFFGMAFNFIVNDSRKKPIWNVLMWTSLFLGNGVLLCFYSQEWYARQHCPLKNPTFLDYVRPRSWTCRYVF
Regarding B5, in assay [1], the “Difference (log2), PP1 vs untreated” value is on record as 0.06363 log2. Moreover, the “Difference (log2), untreated vs GFP” value with GFP-14-3-3β is 0.443 log2.

B6: EEF1A1P5;EEF1A1 (protein, UniProt P68104 2-462, looked up)
Elongation factor 1-alpha 1: GKEKTHINIVVIGHVDSGKSTTTGHLIYKCGGIDKRTIEKFEKEAAEMGKGSFKYAWVLDKLKAERERGITIDISLWKFETSKYYVTIIDAPGHRDFIKNMITGTSQADCAVLIVAAGVGEFEAGISKNGQTREHALLAYTLGVKQLIVGVNKMDSTEPPYSQKRYEEIVKEVSTYIKKIGYNPDTVAFVPISGWNGDNMLEPSANMPWFKGWKVTRKDGNASGTTLLEALDCILPPTRPTDKPLRLPLQDVYKIGGIGTVPVGRVETGVLKPGMVVTFAPVNVTTEVKSVEMHHEALSEALPGDNVGFNVKNVSVKDVRRGNVAGDSKNDPPMEAAGFTAQVIILNHPGQISAGYAPVLDCHTAHIACKFAELKEKIDRRSGKKLEDGPKFLKSGDAAIVDMVPGKPMCVESFSDYPPLGRFAVRDMRQTVAVGVIKAVDKKAAGAGKVTKSAQKAQKAK
As for B6, in assay [1], the “Difference (log2), PP1 vs untreated” value worked out at 0.02225 log2. Besides, the “Difference (log2), untreated vs GFP” value in the assay on GFP-14-3-3β is -0.241 log2.

B7: SPECC1 (protein, UniProt Q5M775 1-1068, looked up)
Cytospin-B: MRSAAKPWNPAIRAGGHGPDRVRPLPAASSGMKSSKSSTSLAFESRLSRLKRASSEDTLNKPGSTAASGVVRLKKTATAGAISELTESRLRSGTGAFTTTKRTGIPAPREFSVTVSRERSVPRGPSNPRKSVSSPTSSNTPTPTKHLRTPSTKPKQENEGGEKAALESQVRELLAEAKAKDSEINRLRSELKKYKEKRTLNAEGTDALGPNVDGTSVSPGDTEPMIRALEEKNKNFQKELSDLEEENRVLKEKLIYLEHSPNSEGAASHTGDSSCPTSITQESSFGSPTGNQMSSDIDEYKKNIHGNALRTSGSSSSDVTKASLSPDASDFEHITAETPSRPLSSTSNPFKSSKCSTAGSSPNSVSELSLASLTEKIQKMEENHHSTAEELQATLQELSDQQQMVQELTAENEKLVDEKTILETSFHQHRERAEQLSQENEKLMNLLQERVKNEEPTTQEGKIIELEQKCTGILEQGRFEREKLLNIQQQLTCSLRKVEEENQGALEMIKRLKEENEKLNEFLELERHNNNMMAKTLEECRVTLEGLKMENGSLKSHLQGEKQKATEASAVEQTAESCEVQEMLKVARAEKDLLELSCNELRQELLKANGEIKHVSSLLAKVEKDYSYLKEICDHQAEQLSRTSLKLQEKASESDAEIKDMKETIFELEDQVEQHRAVKLHNNQLISELESSVIKLEEQKSDLERQLKTLTKQMKEETEEWRRFQADLQTAVVVANDIKCEAQQELRTVKRKLLEEEEKNARLQKELGDVQGHGRVVTSRAAPPPVDEEPESSEVDAAGRWPGVCVSRTSPTPPESATTVKSLIKSFDLGRPGGAGQNISVHKTPRSPLSGIPVRTAPAAAVSPMQRHSTYSSVRPASRGVTQRLDLPDLPLSDILKGRTETLKPDPHLRKSPSLESLSRPPSLGFGDTRLLSASTRAWKPQSKLSVERKDPLAALAREYGGSKRNALLKWCQKKTQGYANIDITNFSSSWSDGLAFCALLHTYLPAHIPYQELNSQEKKRNLLLAFEAAESVGIKPSLELSEMLYTDRPDWQSVMQYVAQIYKYFET
Consider B7, for which, in assay [1], the “Difference (log2), PP1 vs untreated” value is on record as -0.005819 log2. Besides, the “Difference (log2), untreated vs GFP” value with GFP-14-3-3β is 0.2064 log2.

B8: HNRNPM (protein, UniProt P52272 2-730, looked up)
Heterogeneous nuclear …: AAGVEAAAEVAATEIKMEEESGAPGVPSGNGAPGPKGEGERPAQNEKRKEKNIKRGGNRFEPYANPTKRYRAFITNIPFDVKWQSLKDLVKEKVGEVTYVELLMDAEGKSRGCAVVEFKMEESMKKAAEVLNKHSLSGRPLKVKEDPDGEHARRAMQKVMATTGGMGMGPGGPGMITIPPSILNNPNIPNEIIHALQAGRLGSTVFVANLDYKVGWKKLKEVFSMAGVVVRADILEDKDGKSRGIGTVTFEQSIEAVQAISMFNGQLLFDRPMHVKMDERALPKGDFFPPERPQQLPHGLGGIGMGLGPGGQPIDANHLNKGIGMGNIGPAGMGMEGIGFGINKMGGMEGPFGGGMENMGRFGSGMNMGRINEILSNALKRGEIIAKQGGGGGGGSVPGIERMGPGIDRLGGAGMERMGAGLGHGMDRVGSEIERMGLVMDRMGSVERMGSGIERMGPLGLDHMASSIERMGQTMERIGSGVERMGAGMGFGLERMAAPIDRVGQTIERMGSGVERMGPAIERMGLSMERMVPAGMGAGLERMGPVMDRMATGLERMGANNLERMGLERMGANSLERMGLERMGANSLERMGPAMGPALGAGIERMGLAMGGGGGASFDRAIEMERGNFGGSFAGSFGGAGGHAPGVARKACQIFVRNLPFDFTWKMLKDKFNECGHVLYADIKMENGKSKGCGVVKFESPEVAERACRMMNGMKLSGREIDVRIDRNA
Consider B8, for which the “Difference (log2), PP1 vs untreated” value in assay [1] is -0.01052 log2. Besides, the “Difference (log2), untreated vs GFP” value with GFP-14-3-3β was 0.1311 log2.
